Experiments:
[1] = biological target: CBP, A549 nuclear extract (UniProt Q92793); test: FLAG IP/MS; details: nuclear fractions from A549 cells; four individual replicates; read off a plot
[2] = biological target: p300, A549 nuclear extract (UniProt Q09472); test: FLAG IP/MS; details: nuclear fractions from A549 cells; four individual replicates; read off a plot
UniProt Q09472, sequence (Q09472 whole entry): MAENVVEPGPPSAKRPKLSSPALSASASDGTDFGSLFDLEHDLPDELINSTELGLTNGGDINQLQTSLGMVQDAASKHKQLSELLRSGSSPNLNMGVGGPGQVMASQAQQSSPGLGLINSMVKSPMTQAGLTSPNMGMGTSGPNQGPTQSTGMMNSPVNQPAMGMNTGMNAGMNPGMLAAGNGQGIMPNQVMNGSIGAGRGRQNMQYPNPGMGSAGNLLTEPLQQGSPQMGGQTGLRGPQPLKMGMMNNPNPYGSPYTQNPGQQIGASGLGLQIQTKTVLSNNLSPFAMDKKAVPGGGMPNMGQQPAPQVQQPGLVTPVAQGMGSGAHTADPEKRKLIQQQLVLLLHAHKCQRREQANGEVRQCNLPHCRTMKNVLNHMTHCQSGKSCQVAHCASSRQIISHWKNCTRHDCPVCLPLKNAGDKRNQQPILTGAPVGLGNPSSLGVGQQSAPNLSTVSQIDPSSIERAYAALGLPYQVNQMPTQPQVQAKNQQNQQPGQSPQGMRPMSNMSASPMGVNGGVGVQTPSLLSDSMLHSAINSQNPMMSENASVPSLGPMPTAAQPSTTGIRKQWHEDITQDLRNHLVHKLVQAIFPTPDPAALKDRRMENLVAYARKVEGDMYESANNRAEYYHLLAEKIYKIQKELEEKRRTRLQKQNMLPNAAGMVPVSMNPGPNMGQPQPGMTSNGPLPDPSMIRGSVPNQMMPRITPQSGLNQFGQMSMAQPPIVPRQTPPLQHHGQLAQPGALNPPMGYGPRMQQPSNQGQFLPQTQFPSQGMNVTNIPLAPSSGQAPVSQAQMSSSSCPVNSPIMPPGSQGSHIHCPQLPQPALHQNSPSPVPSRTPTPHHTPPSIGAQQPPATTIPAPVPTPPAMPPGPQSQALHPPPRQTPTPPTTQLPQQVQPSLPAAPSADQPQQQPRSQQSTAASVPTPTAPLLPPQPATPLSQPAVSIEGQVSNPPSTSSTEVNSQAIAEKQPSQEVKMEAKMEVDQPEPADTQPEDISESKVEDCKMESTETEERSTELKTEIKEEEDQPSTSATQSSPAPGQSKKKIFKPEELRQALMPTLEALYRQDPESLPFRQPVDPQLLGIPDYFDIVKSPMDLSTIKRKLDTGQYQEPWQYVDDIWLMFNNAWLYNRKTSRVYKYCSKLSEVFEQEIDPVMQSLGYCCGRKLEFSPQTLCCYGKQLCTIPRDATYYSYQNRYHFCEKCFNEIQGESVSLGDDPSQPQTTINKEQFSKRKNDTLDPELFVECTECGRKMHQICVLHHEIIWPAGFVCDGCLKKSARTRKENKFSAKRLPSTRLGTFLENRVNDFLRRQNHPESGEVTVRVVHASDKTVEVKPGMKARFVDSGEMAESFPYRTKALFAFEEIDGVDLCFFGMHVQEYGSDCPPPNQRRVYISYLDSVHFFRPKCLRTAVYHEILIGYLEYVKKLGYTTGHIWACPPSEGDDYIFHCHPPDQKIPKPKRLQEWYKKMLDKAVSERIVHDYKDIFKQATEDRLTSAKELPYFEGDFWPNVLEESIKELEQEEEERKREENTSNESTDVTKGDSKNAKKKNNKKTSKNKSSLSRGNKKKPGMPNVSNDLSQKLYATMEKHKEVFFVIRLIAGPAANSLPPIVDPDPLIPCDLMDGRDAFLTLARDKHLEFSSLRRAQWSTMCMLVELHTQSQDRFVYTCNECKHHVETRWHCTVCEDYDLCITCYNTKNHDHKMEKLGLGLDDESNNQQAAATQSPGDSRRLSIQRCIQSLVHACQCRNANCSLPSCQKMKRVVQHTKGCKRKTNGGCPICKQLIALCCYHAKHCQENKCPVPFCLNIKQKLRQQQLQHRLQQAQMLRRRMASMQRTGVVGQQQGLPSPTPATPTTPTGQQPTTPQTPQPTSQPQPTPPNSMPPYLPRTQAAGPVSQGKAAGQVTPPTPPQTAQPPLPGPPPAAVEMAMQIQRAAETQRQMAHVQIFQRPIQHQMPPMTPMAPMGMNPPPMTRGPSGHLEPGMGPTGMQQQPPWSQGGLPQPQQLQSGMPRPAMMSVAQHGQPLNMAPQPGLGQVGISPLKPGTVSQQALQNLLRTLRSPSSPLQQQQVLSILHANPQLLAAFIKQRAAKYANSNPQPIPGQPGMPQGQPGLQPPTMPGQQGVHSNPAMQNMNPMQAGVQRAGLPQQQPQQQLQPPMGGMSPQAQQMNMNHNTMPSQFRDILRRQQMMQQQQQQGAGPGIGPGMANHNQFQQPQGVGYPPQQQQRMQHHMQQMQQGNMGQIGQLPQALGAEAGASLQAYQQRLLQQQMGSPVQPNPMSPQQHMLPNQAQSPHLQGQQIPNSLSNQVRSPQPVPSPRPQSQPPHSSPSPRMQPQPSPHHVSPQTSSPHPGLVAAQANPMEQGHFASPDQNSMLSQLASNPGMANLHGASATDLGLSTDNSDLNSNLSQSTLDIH

UniProt Q92793, sequence (Q92793 whole entry): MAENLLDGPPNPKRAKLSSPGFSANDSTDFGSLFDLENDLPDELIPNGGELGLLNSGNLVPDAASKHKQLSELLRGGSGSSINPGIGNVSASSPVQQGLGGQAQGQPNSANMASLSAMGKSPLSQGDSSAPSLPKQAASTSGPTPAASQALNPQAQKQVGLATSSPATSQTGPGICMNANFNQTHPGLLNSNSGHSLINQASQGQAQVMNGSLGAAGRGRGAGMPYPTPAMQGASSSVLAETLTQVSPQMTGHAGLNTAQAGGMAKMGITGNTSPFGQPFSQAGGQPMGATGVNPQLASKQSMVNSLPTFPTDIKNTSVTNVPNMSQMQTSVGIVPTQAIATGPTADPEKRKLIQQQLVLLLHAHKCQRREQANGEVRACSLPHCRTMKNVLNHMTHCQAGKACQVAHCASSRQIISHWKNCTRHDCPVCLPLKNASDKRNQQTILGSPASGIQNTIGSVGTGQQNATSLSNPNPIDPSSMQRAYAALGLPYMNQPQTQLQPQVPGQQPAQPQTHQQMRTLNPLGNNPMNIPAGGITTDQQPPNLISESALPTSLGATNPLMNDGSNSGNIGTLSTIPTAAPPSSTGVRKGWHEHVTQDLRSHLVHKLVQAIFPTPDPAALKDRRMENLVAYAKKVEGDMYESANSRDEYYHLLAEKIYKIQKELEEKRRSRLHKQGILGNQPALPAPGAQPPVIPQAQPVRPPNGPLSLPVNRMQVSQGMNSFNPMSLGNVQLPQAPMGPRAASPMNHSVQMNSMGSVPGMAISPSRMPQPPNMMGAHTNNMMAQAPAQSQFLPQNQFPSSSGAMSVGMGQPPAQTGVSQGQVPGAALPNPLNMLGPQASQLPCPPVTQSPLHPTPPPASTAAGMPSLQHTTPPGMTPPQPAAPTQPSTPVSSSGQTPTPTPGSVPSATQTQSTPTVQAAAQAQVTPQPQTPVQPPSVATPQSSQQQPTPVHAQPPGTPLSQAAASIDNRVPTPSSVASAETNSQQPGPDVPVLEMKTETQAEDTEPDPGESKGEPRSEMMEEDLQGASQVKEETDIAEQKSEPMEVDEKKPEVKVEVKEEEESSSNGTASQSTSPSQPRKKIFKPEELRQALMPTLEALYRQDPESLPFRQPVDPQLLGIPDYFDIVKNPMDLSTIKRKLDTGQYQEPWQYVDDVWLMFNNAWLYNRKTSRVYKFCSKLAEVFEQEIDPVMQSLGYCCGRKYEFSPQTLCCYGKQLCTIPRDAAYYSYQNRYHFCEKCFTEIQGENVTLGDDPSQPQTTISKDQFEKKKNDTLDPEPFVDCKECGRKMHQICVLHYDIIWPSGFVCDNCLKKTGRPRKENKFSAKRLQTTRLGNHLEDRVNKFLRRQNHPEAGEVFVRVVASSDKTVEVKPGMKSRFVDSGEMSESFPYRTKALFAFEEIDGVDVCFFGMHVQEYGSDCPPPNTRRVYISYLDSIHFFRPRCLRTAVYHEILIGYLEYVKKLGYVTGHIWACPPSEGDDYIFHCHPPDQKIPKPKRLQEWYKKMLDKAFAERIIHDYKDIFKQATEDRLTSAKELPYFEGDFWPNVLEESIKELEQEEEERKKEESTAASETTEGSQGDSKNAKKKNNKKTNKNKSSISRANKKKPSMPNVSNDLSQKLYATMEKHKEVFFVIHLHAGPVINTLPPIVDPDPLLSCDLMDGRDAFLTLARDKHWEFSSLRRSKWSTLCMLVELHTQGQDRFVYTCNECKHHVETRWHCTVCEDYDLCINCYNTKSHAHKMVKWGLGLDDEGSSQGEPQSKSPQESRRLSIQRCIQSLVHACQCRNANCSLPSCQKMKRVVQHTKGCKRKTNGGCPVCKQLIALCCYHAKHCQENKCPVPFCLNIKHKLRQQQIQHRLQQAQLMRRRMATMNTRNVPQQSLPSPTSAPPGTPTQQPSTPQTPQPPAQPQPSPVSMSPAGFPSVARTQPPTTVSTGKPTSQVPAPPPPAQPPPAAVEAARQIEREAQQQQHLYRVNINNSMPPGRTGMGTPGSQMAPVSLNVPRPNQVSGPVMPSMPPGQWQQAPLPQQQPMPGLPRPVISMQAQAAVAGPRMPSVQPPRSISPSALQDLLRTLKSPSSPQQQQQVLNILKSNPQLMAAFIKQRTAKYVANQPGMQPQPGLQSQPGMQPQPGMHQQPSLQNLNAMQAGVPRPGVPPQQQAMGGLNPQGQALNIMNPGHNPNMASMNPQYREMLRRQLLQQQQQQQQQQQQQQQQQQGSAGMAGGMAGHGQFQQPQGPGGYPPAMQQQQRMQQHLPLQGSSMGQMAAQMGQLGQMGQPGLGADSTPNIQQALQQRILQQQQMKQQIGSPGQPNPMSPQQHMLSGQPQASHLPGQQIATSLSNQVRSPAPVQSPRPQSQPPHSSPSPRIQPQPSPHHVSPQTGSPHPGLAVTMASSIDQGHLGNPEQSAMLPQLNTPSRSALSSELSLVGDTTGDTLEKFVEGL

Substance “FLAG-tagged WT NRF2, stably expressed in A549 (TRE3G-driven, dox-induced) (from UniProt Q16236) Neh4: …>… (F>A; D>A; C>A; L>A); Neh5: …>… (Q>A; D>A; E>A; L>A)” has an other: log2(fold change) [1] of -3.8 and an other: log2(fold change) [2] of -3.2.
